Measured values: PMC8063937, “A Novel Cysteine Protease Inhibitor of Naegleria fowleri That Is Specifically Expressed during Encystation and at Mature Cysts” (Pathogens, 2021)

B1: recombinant cysteine protease inhibitor of Naegleria fowleri (NfCPI), lacking the signal peptide (natural protein)
chain: ALPIATNVIPGGRQPISNQTLIEELTTFIPKASSNGVCRVTRVLSAQQQVVAGTIYYLVVEVSTSCDATSSQTFCEKLKIFRPLVTRSVENPQLQLQKEQRVDCNTP
notes: ORF of 136 residues; the forward primer encodes LPIATNV as its first residues, the reverse primer ends at the stop codon; cDNA from strain Carter NF69 (ATCC 30215); also called recombinant NfCPI; source: E. coli M15 (pREP14), pQE-9, purified (Ni-NTA)

What was measured:
[1] = target: recombinant cathepsin-B-like cysteine protease of N. fowleri (NfCBL) (Naegleria fowleri); assay: enzyme inhibition assay (residual activity on a fluorogenic substrate); 10 nM enzyme incubated with 0-100 nM NfCPI in 50 mM sodium acetate pH 6.0, 20 min, RT; substrate Z-LR-MCA in 50 mM sodium acetate pH 5.0 with 10 mM DTT; Ki calculated from IC50 and Km, non-linear regression
[2] = target: the molecule itself; assay: non-reducing PAGE; purified NfCPI, with 0-10% SDS, without β-mercaptoethanol, with or without heating at 100 °C for 5 min
papain = target: T1, papain (UniProt P00784 134-345); assay: enzyme inhibition assay (residual activity on a fluorogenic substrate); 10 nM enzyme incubated with 0-100 nM NfCPI in 50 mM sodium acetate pH 6.0, 20 min, RT; substrate Z-LR-MCA in 50 mM sodium acetate pH 5.0 with 10 mM DTT; Ki calculated from IC50 and Km, non-linear regression; conditions: both partners purified
T1 construct: Papain, cysteine protease bought from Sigma; source: bought: Sigma
T1 sequence (looked up): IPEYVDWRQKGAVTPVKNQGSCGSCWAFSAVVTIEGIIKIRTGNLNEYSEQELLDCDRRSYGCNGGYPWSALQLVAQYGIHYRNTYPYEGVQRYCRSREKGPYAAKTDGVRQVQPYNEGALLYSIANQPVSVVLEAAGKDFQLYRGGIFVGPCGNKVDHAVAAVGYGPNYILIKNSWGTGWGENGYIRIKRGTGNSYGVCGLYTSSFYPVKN

[3] = target: T2, recombinant cathepsin-B cysteine protease of N. fowleri (NfCB) (Naegleria fowleri); assay: as above; conditions: both partners purified
T2 chain: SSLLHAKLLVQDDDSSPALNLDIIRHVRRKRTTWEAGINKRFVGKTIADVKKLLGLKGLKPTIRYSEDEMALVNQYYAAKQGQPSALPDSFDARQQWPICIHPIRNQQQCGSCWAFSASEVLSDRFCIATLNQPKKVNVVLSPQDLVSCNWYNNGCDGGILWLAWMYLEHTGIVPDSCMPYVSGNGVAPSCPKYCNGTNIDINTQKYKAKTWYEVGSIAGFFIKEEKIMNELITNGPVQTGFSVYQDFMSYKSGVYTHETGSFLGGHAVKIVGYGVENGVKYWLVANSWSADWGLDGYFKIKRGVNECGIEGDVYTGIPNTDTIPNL

| Molecule | Ki [1] [nM] | stoichiometry N [2] | Ki (papain) [nM] | Ki [3] [nM] |
| --- | --- | --- | --- | --- |
| recombinant cysteine protease inhibitor of Naegleria fowleri (NfCPI), lacking the signal peptide (from UniProt A0A6A5BTM4 30-136) (natural protein) | 0.144 |  |  |  |
| B1 |  | 2 | 0.259 | 0.193 |
